± gives the standard deviation of the averaged measurements.
Assay: total protein half-life in vivo (active degradation + dilution); higher = more stable protein
[1] = E. coli NCM3722 delta-clpP delta-lon delta-hslV, growth: N-lim chemostat, doubling time 6 h
[2] = E. coli NCM3722 delta-hslV, growth: N-lim chemostat, doubling time 6 h
[3] = E. coli NCM3722 delta-lon, growth: N-lim chemostat, doubling time 6 h
[4] = E. coli NCM3722 delta-smpB, growth: N-lim chemostat, doubling time 6 h
[5] = wild type E. coli NCM3722, growth: C-lim chemostat, doubling time 3 h
[6] = wild type E. coli NCM3722, growth: C-lim chemostat, doubling time 6 h
[7] = wild type E. coli NCM3722, growth: C-lim chemostat, doubling time 12 h
[8] = wild type E. coli NCM3722, growth: N-lim chemostat, doubling time 6 h
[9] = wild type E. coli NCM3722, growth: N-lim chemostat, doubling time 12 h
[10] = wild type E. coli NCM3722, growth: P-lim chemostat, doubling time 6 h
[11] = wild type E. coli NCM3722, growth: P-lim chemostat, doubling time 12 h
[12] = E. coli NCM3722 delta-clpP, growth: N-lim chemostat, doubling time 6 h

## MEQAHTQLIAQLNERILAADNTPLYIKFAETVKNAVRSGVLEHGNILPGERDLSQLTGVSRITVRKAMQALEEEGVVTRSRGYGTQINNIFEYSLKEARGFSQQVVLRGKKPDTLWVNKRVVKCPEEVAQQLAVEAGSDVFLLKRIRYVDEEAVSIEESWVPAHLIHDVDAIGISLYDYFRSQHIYPQRTRSRVSARMPDAEFQSHIQLDSKIPVLVIKQVALDQQQRPIEYSISHCRSDLYVFVCEE [P0ACM5]
[1]
  total protein half-life in vivo: 5.72 ± 0.0036 h
[2]
  total protein half-life in vivo: 4.14 ± 0.2 h
[3]
  total protein half-life in vivo: 4.55 ± 0.12 h
[4]
  total protein half-life in vivo: 3.91 ± 0.15 h
[5]
  total protein half-life in vivo: 2.75 ± 0.084 h
[6]
  total protein half-life in vivo: 4.84 ± 0.37 h
[7]
  total protein half-life in vivo: 8.6 ± 0.18 h
[8]
  total protein half-life in vivo: 4.04 ± 0.17 h
[9]
  total protein half-life in vivo: 6.99 ± 0.2 h
[10]
  total protein half-life in vivo: 4.28 ± 0.053 h
[11]
  total protein half-life in vivo: 7.99 ± 0.19 h

## MEQPVIPVRNIYYMLTYAWGYLQEIKQANLEAIPGNNLLDILGYVLNKGVLQLSRRGLELDYNPNTEIIPGIKGRIEFAKTIRGFHLNHGKTVSTFDMLNEDTLANRIIKSTLAILIKHEKLNSTIRDEARSLYRKLPGISTLHLTPQHFSYLNGGKNTRYYKFVISVCKFIVNNSIPGQNKGHYRFYDFERNEKEMSLLYQKFLYEFCRRELTSANTTRSYLKWDASSISDQSLNLLPRMETDITIRSSEKILIVDAKYYKSIFSRRMGTEKFHSQNLYQLMNYLWSLKPENGENIGGLLIYPHVDTAVKHRYKINGFDIGLCTVNLGQEWPCIHQELLDIFDEYLK
[5]
  total protein half-life in vivo: 3.05 ± 0.89 h
[6]
  total protein half-life in vivo: 5.31 h
[7]
  total protein half-life in vivo: > 16 h
[10]
  total protein half-life in vivo: 5.09 ± 0.42 h
[11]
  total protein half-life in vivo: 7.9 ± 0.14 h

## MEQVVIVDAIRTPMGRSKGGAFRNVRAEDLSAHLMRSLLARNPALEAAALDDIYWGCVQQTLEQGFNIARNAALLAEVPHSVPAVTVNRLCGSSMQALHDAARMIMTGDAQACLVGGVEHMGHVPMSHGVDFHPGLSRNVAKAAGMMGLTAEMLARMHGISREMQDAFAARSHARAWAATQSAAFKNEIIPTGGHDADGVLKQFNYDEVIRPETTVEALATLRPAFDPVNGMVTAGTSSALSDGAAAMLVMSESRAHELGLKPRARVRSMAVVGCDPSIMGYGPVPASKLALKKAGLSASDIGVFEMNEAFAAQILPCIKDLGLIEQIDEKINLNGGAIALGHPLGCSGARISTTLLNLMERKDVQFGLATMCIGLGQGIATVFERV
[1]
  total protein half-life in vivo: 4.38 ± 0.27 h
[12]
  total protein half-life in vivo: 3.05 ± 0.081 h
[2]
  total protein half-life in vivo: 2.922 ± 0.023 h
[3]
  total protein half-life in vivo: 2.52 ± 0.046 h
[4]
  total protein half-life in vivo: 3.22 ± 0.013 h
[5]
  total protein half-life in vivo: 3.36 ± 0.57 h
[6]
  total protein half-life in vivo: 5 ± 0.57 h
[7]
  total protein half-life in vivo: 9.67 ± 0.97 h
[8]
  total protein half-life in vivo: 3.18 ± 0.39 h
[9]
  total protein half-life in vivo: 4.39 ± 0.12 h
[10]
  total protein half-life in vivo: 5.97 ± 0.56 h
[11]
  total protein half-life in vivo: 11.5 ± 0.95 h

## MERFLENAMYASRWLLAPVYFGLSLALVALALKFFQEIIHVLPNIFSMAESDLILVLLSLVDMTLVGGLLVMVMFSGYENFVSQLDISENKEKLNWLGKMDATSLKNKVAASIVAISSIHLLRVFMDAKNVPDNKLMWYVIIHLTFVLSAFVMGYLDRLTRHNH
[3]
  total protein half-life in vivo: 6.103 ± 0.048 h
[4]
  total protein half-life in vivo: 5.64 ± 0.26 h
[5]
  total protein half-life in vivo: 2.92 ± 0.05 h
[7]
  total protein half-life in vivo: 11.8 ± 1.8 h
[8]
  total protein half-life in vivo: 4.99 ± 0.67 h
[10]
  total protein half-life in vivo: 5.88 h
[11]
  total protein half-life in vivo: 10.6 h

## MERLLIVNADDFGLSKGQNYGIIEACRNGIVTSTTALVNGQAIDHAVQLSRDEPSLAIGMHFVLTMGKPLTAMPGLTRDGVLGKWIWQLAEEDALPLEEITQELVSQYLRFIELFGRKPTHLDSHHHVHMFPQIFPIVARFAAEQGIALRADRQMAFDLPVNLRTTQGFSSAFYGEEISESLFLQVLDDAGHRGDRSLEVMCHPAFIDNTIRQSAYCFPRLTELDVLTSASLKGAIAQRGYRLGSYRDV
[12]
  total protein half-life in vivo: 3.19 ± 0.45 h
[2]
  total protein half-life in vivo: 3.38 h
[3]
  total protein half-life in vivo: 3.55 ± 0.42 h
[4]
  total protein half-life in vivo: 2.945 ± 0.014 h
[5]
  total protein half-life in vivo: 2.86 ± 0.21 h
[6]
  total protein half-life in vivo: 4.51 ± 0.39 h
[7]
  total protein half-life in vivo: 7.9 ± 0.51 h
[8]
  total protein half-life in vivo: 3.27 ± 0.43 h
[9]
  total protein half-life in vivo: 4.74 ± 0.26 h
[10]
  total protein half-life in vivo: 5.12 ± 0.14 h
[11]
  total protein half-life in vivo: 10.1 ± 0.26 h

## MERYESLFAQLKERKEGAFVPFVTLGDPGIEQSLKIIDTLIEAGADALELGIPFSDPLADGPTIQNATLRAFAAGVTPAQCFEMLALIRQKHPTIPIGLLMYANLVFNKGIDEFYAQCEKVGVDSVLVADVPVEESAPFRQAALRHNVAPIFICPPNADDDLLRQIASYGRGYTYLLSRAGVTGAENRAALPLNHLVAKLKEYNAAPPLQGFGISAPDQVKAAIDAGAAGAISGSAIVKIIEQHINEPEKMLAALKVFVQPMKAATRS [P0A877]
[1]
  total protein half-life in vivo: 3.93 ± 0.57 h
[12]
  total protein half-life in vivo: 3.89 ± 0.84 h
[2]
  total protein half-life in vivo: 3.44 ± 0.066 h
[3]
  total protein half-life in vivo: 4.07 ± 0.48 h
[4]
  total protein half-life in vivo: 3.69 ± 0.17 h
[5]
  total protein half-life in vivo: 3.084 ± 0.021 h
[6]
  total protein half-life in vivo: 5.81 ± 0.23 h
[7]
  total protein half-life in vivo: 8.972 ± 0.077 h
[8]
  total protein half-life in vivo: 3.61 ± 0.21 h
[9]
  total protein half-life in vivo: 5.06 ± 0.87 h
[10]
  total protein half-life in vivo: 5.39 ± 0.16 h
[11]
  total protein half-life in vivo: 12 ± 0.5 h

## MESKRLDNAALAAGISPNYINAHGKPQSISAETKRRLLDAMHQRTATKVAVTPVPNVMVYTSGKKMPMVVEGSGEYSWLLTTEEGTQYKGHVTGGKAFNLPTKLPEGYHTLTLTQDDQRAHCRVIVAPKRCYEPQALLNKQKLWGACVQLYTLRSEKNWGIGDFGDLKAMLVDVAKRGGSFIGLNPIHALYPANPESASPYSPSSRRWLNVIYIDVNAVEDFHLSEEAQAWWQLPTTQQTLQQARDADWVDYSTVTALKMTALRMAWKGFAQRDDEQMAAFRQFVAEQGDSLFWQAAFDALHAQQVKEDEMRWGWPAWPEMYQNVDSPEVRQFCEEHRDDVDFYLWLQWLAYSQFAACWEISQGYEMPIGLYRDLAVGVAEGGAETWCDRELYCLKASVGAPPDILGPLGQNWGLPPMDPHIITARAYEPFIELLRANMQNCGALRIDHVMSMLRLWWIPYGETADQGAYVHYPVDDLLSILALESKRHRCMVIGEDLGTVPVEIVGKLRSSGVYSYKVLYFENDHEKTFRAPKAYPEQSMAVAATHDLPTLRGYWECGDLTLGKTLGLYPDEVVLRGLYQDRELAKQGLLDALHKYGCLPKRAGHKASLMSMTPTLNRGLQRYIADSNSALLGLQPEDWLDMAEPVNIPGTSYQYKNWRRKLSATLESMFADDGVNKLLKDLDRRRRAAAKKK
[1]
  total protein half-life in vivo: 6.24 ± 0.17 h
[12]
  total protein half-life in vivo: 6.29 ± 0.23 h
[3]
  total protein half-life in vivo: 4.12 ± 1.7 h
[4]
  total protein half-life in vivo: 5.57 ± 0.12 h
[6]
  total protein half-life in vivo: 6.27 ± 0.46 h
[7]
  total protein half-life in vivo: 13.5 ± 1.4 h
[8]
  total protein half-life in vivo: 6.03 ± 0.061 h
[9]
  total protein half-life in vivo: 12.1 ± 0.58 h
[10]
  total protein half-life in vivo: 5.25 ± 0.14 h
[11]
  total protein half-life in vivo: 10.3 ± 0.19 h

From the supplement of paper PMC11246515
